Measurements reported in patent US20250025478.

Assays:
6×His-CYLD = 6×His-CYLD (UniProt Q9NQC7)
GST-SPATA2 = GST-SPATA2 (UniProt Q9UM82)
Chain of GST-SPATA2 (Q9UM82 whole entry): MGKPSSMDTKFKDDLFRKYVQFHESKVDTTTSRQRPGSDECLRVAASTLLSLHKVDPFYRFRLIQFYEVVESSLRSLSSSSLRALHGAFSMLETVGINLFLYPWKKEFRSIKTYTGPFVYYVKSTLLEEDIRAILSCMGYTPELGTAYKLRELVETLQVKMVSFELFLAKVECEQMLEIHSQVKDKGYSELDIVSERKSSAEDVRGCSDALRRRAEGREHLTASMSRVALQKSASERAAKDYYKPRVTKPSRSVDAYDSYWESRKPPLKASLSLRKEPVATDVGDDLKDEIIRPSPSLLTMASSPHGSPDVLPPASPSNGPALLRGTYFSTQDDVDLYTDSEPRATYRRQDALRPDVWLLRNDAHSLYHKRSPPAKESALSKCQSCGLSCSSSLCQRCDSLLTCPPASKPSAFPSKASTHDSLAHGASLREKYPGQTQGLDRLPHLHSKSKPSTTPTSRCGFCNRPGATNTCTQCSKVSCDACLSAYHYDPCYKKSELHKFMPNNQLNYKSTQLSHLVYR

Chain of 6×His-CYLD (Q9NQC7 whole entry): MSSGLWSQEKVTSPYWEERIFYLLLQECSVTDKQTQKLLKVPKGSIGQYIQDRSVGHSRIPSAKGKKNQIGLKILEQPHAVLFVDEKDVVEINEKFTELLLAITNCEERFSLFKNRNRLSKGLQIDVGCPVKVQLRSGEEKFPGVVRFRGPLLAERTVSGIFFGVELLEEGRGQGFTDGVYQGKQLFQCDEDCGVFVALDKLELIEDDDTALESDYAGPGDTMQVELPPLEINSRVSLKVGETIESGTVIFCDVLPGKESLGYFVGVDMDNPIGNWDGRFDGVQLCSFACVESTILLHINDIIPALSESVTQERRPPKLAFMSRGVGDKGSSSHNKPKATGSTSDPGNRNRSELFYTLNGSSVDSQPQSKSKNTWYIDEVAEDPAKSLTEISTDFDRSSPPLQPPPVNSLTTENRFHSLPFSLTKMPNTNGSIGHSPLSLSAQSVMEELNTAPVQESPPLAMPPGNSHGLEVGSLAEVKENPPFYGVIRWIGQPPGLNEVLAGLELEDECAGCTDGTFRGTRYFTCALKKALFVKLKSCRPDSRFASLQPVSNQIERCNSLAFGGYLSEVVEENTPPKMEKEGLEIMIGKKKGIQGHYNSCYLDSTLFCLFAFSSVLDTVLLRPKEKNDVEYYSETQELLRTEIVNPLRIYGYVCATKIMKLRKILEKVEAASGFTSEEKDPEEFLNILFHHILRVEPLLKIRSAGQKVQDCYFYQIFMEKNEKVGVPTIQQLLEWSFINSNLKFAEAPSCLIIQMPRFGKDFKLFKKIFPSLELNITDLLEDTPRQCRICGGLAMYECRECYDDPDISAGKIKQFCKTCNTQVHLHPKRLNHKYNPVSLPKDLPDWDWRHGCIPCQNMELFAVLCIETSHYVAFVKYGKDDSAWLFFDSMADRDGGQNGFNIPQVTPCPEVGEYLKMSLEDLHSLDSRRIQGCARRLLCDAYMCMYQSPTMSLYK

Substance	in vitro ubiquitylation assay (UBE1, UBE2L3, HA-Ub) (6×His-CYLD)	in vitro ubiquitylation assay (UBE1, UBE2L3, HA-Ub) (GST-SPATA2)	in vitro dephosphorylation of ABL1-phosphorylated RNF213 (3×-FLAG-RNF213)
3×-FLAG-RNF213^H4014A/H4509A	RING/RZ-dead was unable to ubiquitylate CYLD/SPATA2	RING/RZ-dead was unable to ubiquitylate CYLD/SPATA2	–
recombinant GST-PTP1B	–	–	GST-PTP1B dephosphorylated ABL1-phosphorylated RNF213
3×-FLAG-RNF213	SPATA2 and CYLD, when tested alone or in equimolar concentrations, were ubiquitinated by 3×FLAG-RNF213	SPATA2 and CYLD, when tested alone or in equimolar concentrations, were ubiquitinated by 3×FLAG-RNF213	–
3×-FLAG-RNF213^H4014A	both proteins showed increased ubiquitylation when the RING mutant RNF213^H4014A (RING-dead) was assayed (compared with WT RNF213)	both proteins showed increased ubiquitylation when the RING mutant RNF213^H4014A (RING-dead) was assayed (compared with WT RNF213)	–
3×-FLAG-RNF213^H4509A	There was no significant ubiquitylation of CYLD or SPATA2 when an RZ mutant ("RZ-dead") form of RNF213 (RNF213^H4509A) was tested	There was no significant ubiquitylation of CYLD or SPATA2 when an RZ mutant ("RZ-dead") form of RNF213 (RNF213^H4509A) was tested	–
